{
  "source": "paper PMC4987623",
  "about": "“The tetrameric MotA complex as the core of the flagellar motor stator from hyperthermophilic bacterium” (Scientific Reports, 2016)",
  "key": {"[1]": {"biological_target": "the molecule itself", "assay": "cross-linking; about 0.5 mg/mL purified His-MotA in PN buffer (50 mM NaPO4 pH 7.0, 150 mM NaCl) with 0.1% (w/v) DM, 20 °C, 0-5 mM BS3 for 5 min; SDS-PAGE, CBB staining and immunoblot"}, "[2]": {"biological_target": "the molecule itself", "assay": "cross-linking; about 0.5 mg/mL purified His-MotA in PN buffer (50 mM NaPO4 pH 7.0, 150 mM NaCl) with 0.1% (w/v) DM, 20 °C, 20 mM EDC for 0-120 min; SDS-PAGE, CBB staining and immunoblot"}, "[3]": {"biological_target": "the molecule itself", "assay": "negative-stain electron microscopy, single particle 3D reconstruction; MotA complex from the 210 kDa gel filtration fraction, stained with 2% uranyl acetate; 2-fold rotational symmetry applied; 25 Å resolution"}},
  "data": [
    {"protein": "MotA from Aquifex aeolicus with N-terminal histidine tag (His-MotA^Aa) (natural protein, UniProt O67122 1-254, looked up, MotA, flagellar motor stator protein of Aquifex aeolicus; full-length motA gene cloned into pColdI; four transmembrane helices, cytoplasmic residues 54-149 and 205-254; Expressed from pColdI-motA^Aa without MotB; 28 kDa with the tag; source: E. coli BL21-CodonPlus(DE3)-RIPL, membrane fraction solubilized in detergent, purified (Ni-NTA agarose, gel filtration); not shown: His6, N-terminal, kept) MDVGTIIGIIAAFLLILISILIGGSITAFINVPSIFIVVGGGMAAAMGAFPLKDFIRGVLAIKKAFLWKPPDLNDVIETIGEIASKVRKEGILALEGDIELYYQKDPLLGDMIRMLVDGIDINDIKATAEMALAQLDEKMSTEVAVWEKLADLFPAFGMIGTLIGLIQMLRNLNDPSALGPGMAVALITTLYGAILANAFAIPVANKLKKAKDMEVLVKTIYIEAIEKIQKGENPNVVKQEAAIMLGVELPEEV", "values": [
      {"measurement": "stoichiometry N", "setting": "[1]", "result": 2},
      {"measurement": "stoichiometry N", "setting": "[2]", "result": "≥ 4"},
      {"measurement": "stoichiometry N", "setting": "[3]", "result": 4}
    ]}
  ]
}
